According to US20210038528:

Columns and labels:
[1] = test system: T1, CGPLGLAGGERDGC (MMP9 substrate) peptide cross-linker as presented in MMP9-NANs
T1 sequence: CGPLGLAGGERDGC

[2] = test system: T2, CGFLGC (cathepsin B substrate) peptide cross-linker as presented in CathB-NANs
T2 sequence: CGFLGC

Row | Substance | dye release from pep-NAN at pH 7 (fluorescence assay) [1] | dye release from pep-NAN (fluorescence assay) [1] | dye release from pep-NAN at pH 5 (fluorescence monitoring) [1] | dye release from pep-NAN (fluorescence assay) [2] | time to comparable fluorescence change, relative to MMP9-NAN degradation by MMP9 [2]
1 | MMP2 | The results of these experiments indicated that the MMP9-NAN is specific to the MMP9 enzyme | – | – | – | –
2 | MMP9 enzyme (matrix metalloproteinase 9) | – | MMP9-NANs and CathB-NANs released their dye when treated with their intended enzyme targets, MMP9 and cathepsin B, respectively | Exposure of MMP9-NANs to cathepsin B and MMP9 at pH 5 resulted in no observable change in fluorescence | – | –
3 | MMP1 | The results of these experiments indicated that the MMP9-NAN is specific to the MMP9 enzyme | – | – | – | –
4 | cathepsin B | – | Cathepsin B activity on MMP9-NANs was also evaluated, in which no fluorescence change was observed | – | MMP9-NANs and CathB-NANs released their dye when treated with their intended enzyme targets, MMP9 and cathepsin B, respectively | it takes ˜20× as long to see comparable fluorescence changes in solution when cathepsin B is added to a solution of CathB-NANs as compared to MMP9-NAN degradation by MMP9
